# Measured values from patent publication US20080113421A1, “Stabilizing proteins against denaturation and inactivation by charged detergents using chemical modifications, including modifications that increase net charge” (President and Fellows of Harvard College, priority 2006, published 2008).
# Key:
# [1] = Refolding of SDS-denatured protein by dilution or removal of SDS, monitored by DNSA fluorescence; type: physicochemical
# Experimental: Monitoring refolding of BCA and BCA-Ac18 was performed as follows. The proteins (10 micomolar) were denatured in 10 mM SDS for 24 h. […] Refolding was initiated by dilution of an aliquot of the denatured sample to a final concentration of protein of 200 nM, with varying concentrations of SDS in the buffer. Immediately prior to the measurement, an aliquot of renaturing protein was mixed with an equal aliquot of DNSA. The rate constants for renaturation were determined by fitting the data to FU=FUmax(1-e^−kt)+FUmin. The refolding experiments at 37° C. were performed similarly.
# The kinetics of refolding were determined as follows. The rates of refolding of BCA and BCA-Ac18 from the fully denatured states (in 10 mM SDS) were measured by dilution of the solutions into buffers containing concentrations of SDS from 0.1 to 2 mM, using the fluorescence of DNSA as a marker for the appearance of the folded state. […] As in denaturation studies, an aliquot of solution of the protein and SDS was mixed with an equal aliquot of solution of DNSA with the same amount of SDS immediately prior to the measurement to eliminate the possibility of DNSA influencing refolding kinetics. The buffer also contained 100 micromolar ZnSO4 to ensure that the folded protein could incorporate a Zn(II) cofactor.
# The raw data emphasize the decrease in the yield of folded protein with increasing concentration of SDS. […] The half-lives (t1/2) for renaturation were determined, where possible, by fitting the data to FU=FUmax(1-exp(−t/t1/2))+FUmin; the fits are shown (solid lines). The tables provide data for refolding in 0.1 and 0.4 mM SDS as well as for concentrations on the graphs for comparison. […] The error bars represent the difference between the average and the largest and smallest values measured from at least three replicate measurements.
# [2] = Dynamic light scattering, hydrodynamic radius; type: physicochemical
# Experimental: Dynamic light scattering (DLS) measurements were performed on a DynaPro light scattering device (Wyatt Technology Corp.), at protein concentrations of […].
# Dynamic light scattering was also used to measure the sizes of the folded and unfolded protein and of the presumably aggregated sample. The hydrodynamic radius of the native BCA (2.7±0.7 nm), and of BCA, refolded in 0.1 mM SDS (2.6±0.6 nm), were measured. BCA was denatured in 10 mM SDS, and diluted to 1.8 mM SDS, a concentration at which no refoldings were observed immediately before the measurement. […] The small increase in the hydrodynamic radius of the incubated sample is indicative of the formation of low-order aggregates (e.g., dimers or trimers), but the resolution of DLS measurements was not sufficient to observe each species individually.
# [3] = Denaturation of BCA charge ladders in 3 mM SDS (dialysis cassette) followed by capillary electrophoresis, with transition-state model fit; type: physicochemical
# Experimental: Denaturation experiments were performed as follows. A charge ladder of BCA (BCA-Acn or BCA-Hexn, 1 mL of 100 micromolar total protein in Tris-Gly buffer) was placed in a dialysis cassette (MW cutoff of 10 kDa). The dialysis cassette was placed in a 1 L bath of 3 mM SDS in Tris-Gly buffer at room temperature. The buffer was changed every 24 h. At regular intervals of time (approximately every half-hour), 100 microliters of the protein solution was removed from the dialysis cassette; ˜7 microliters of that aliquot was diluted 10-fold and the absorbance of the diluted sample at 280 nm (ε280,BcA=57,000 M^−1 cm^−1, the absorption cross section can be assumed to be is unchanged by acylation) was measured to determine the total protein concentration. The aliquot was diluted because the absorbance of the 100 micromolar solution was too high to be read accurately by the ultraviolet spectrometer. This diluted aliquot was discarded. The remainder of the solution was then run on CE. The protein solution, except for the portion diluted for ultraviolet measurement, was returned to the dialysis cassette; the aliquot was outside of the dialysis cassette for ˜5 min.
# Capillary electrophoresis experiments were carried out in a Beckman (Fullerton, Calif.) PACE-MDQ system, using a capillary of inner diameter of 50 micrometers of total length of 110.2 cm, 100 cm to the detector. Tris-Gly in D2O was used as the running buffer, and the applied voltage was 30 kV. D2O was used in place of H2O for the electrophoresis buffer because the viscosity of D2O is higher than that of H2O and the higher viscosity minimizes diffusion. Samples were injected using pressure (20 psi) for 30 s. Each sample contained 0.65 mM dimethylformamide as an electrically neutral marker for electroosmotic flow.
# The CMC of SDS in the Tris-Gly buffer used in this example was 4.3 mM. 3 mM SDS was chosen for these experiments because this concentration of SDS denatured BCA in an interval of time that was convenient for experimental work using CE. In addition, this concentration of SDS was close to the concentration often used in SDS-PAGE (0.1% or 3.5 mM). 1 mL of a solution of ˜100 micromolar of a charge ladder of BCA, dissolved in Tris-Gly buffer, was placed into a dialysis cassette (molecular weight cutoff of 10 kDa) and the cassette placed in 1 L of Tris-Gly buffer containing 3 mM SDS. The bath was kept at room temperature (˜22° C.) for the duration of the experiment.
# At regular intervals of time (approximately every half hour), 100-microliter aliquots of the solutions containing the charge ladder of BCA were removed from the cassette in a bath of 3 mM SDS in Tris-Gly buffer, the total protein concentration in the aliquot was measured using absorbance at 280 nm, and a portion (˜10 nL) of the aliquot injected onto the CE. The unused portions of the aliquots were then returned to the cassette.
# Residence time in the detection volume was determined as follows. […] If two proteins with the same absorptivity were present in a sample in equal concentrations, the protein of lower velocity would have a larger measured peak area than the protein of higher velocity. To correct for this experimental bias, the area of each peak was multiplied-by the velocity of the protein (Acorr=Ameasured×LD/tD), where LD is the length of the capillary from the end (where injection occurs) to the detector (100 cm in all of these experiments) and tD is the time it takes for the rung to reach the detector.
# Initial differences in concentrations of each rung were as follows. The areas of each of the rungs in the charge ladder were not all equal before denaturation. To measure the fraction of each rung that has denatured at each time, the velocity-corrected area of each rung in the sample was divided by the velocity-corrected area of that rung in the charge ladder run in the absence of SDS.
# A comparison of the rates of denaturation follows. […]
# [4] = from solutions of GuHCl; cited from earlier work
substance,measurement,setting,value
bovine carbonic anhydrase II [BCA],concentration of SDS at which no refolded protein was observed,[1]; dilution from 10 mM SDS,≥ 800 µM
same,range of SDS concentrations in which protein neither refolds nor unfolds at an observable rate (window),[1]; time scales of a month,0.8 to 2 mM
same,refolding rate (given as time) after denaturation with SDS,[1]; upon complete removal of the SDS,11 ± 1 min
same,hydrodynamic radius,"[2]; denatured in 10 mM SDS, diluted to 1.8 mM SDS immediately before measurement",2.9±0.6 nm
same,hydrodynamic radius,"[2]; denatured, incubated in 1.8 mM SDS for one week",3.6±0.9 nm
same,hydrodynamic radius,[2]; native protein,2.7±0.7 nm
same,hydrodynamic radius,[2]; refolded in 0.1 mM SDS,2.6±0.6 nm
same,ΔG‡ of denaturation (a coefficient),"[3]; 3 mM SDS, room temperature, assumes νκTST=10^6 s^−1",14 ± 1 kcal/mol
same,radius of the transition state RTS,"[3]; model, assuming a radius of BCA of 2 nm",2.1 nm
same,time constant of rate-limiting step in folding,[4],~10 min
